In patent US9624471B2, “Methods for maturing cardiomyocytes and uses thereof” (UNIVERSITY OF WASHINGTON THROUGH ITS CENTER FOR …, priority 2013, dated 2017):

Experiments:
let-7 OE CMs = assay: Mitochondrial DNA copy number by qPCR (mtCol normalized to GAPDH); type: cell-based, human; settings: let-7 OE vs. EV control
Source text: FIGS. 5A-5G Let-7 over expression results in down-regulation of PI3/AKT/Insulin pathway and up-regulation of FA metabolism. Comparisons were done between let-7OE and EV control for all assays (FIG. 5A) Density plots using R generated with fold change expression (let-7g OE/EV) of genes for FA metabolism and PI3/AKT/Insulin signaling. (FIG. 5B) qPCR analysis of candidate let-7 targets of the insulin pathway and genes from the FA metabolism. (FIG. 5C) Representative OCR profile in response to ATP synthase inhibitor oligomycin, uncoupler of electron transport and oxidative phosphorylation, FCCP and electron transport chain blockers rotenone and antimycin during mito-stress assay. (FIG. 5D) Quantification of maximal respiration capacity, i.e., changes in response to FCCP treatment after inhibition of ATP synthase by oligomycin. n=24 from 3 biological replicates. (FIG. 5E) mitochondrial DNA copy number was determined by measuring the ratio of MtDNA to genomic DNA using primers specific for mitochondrial DNA gene, Col (mtCol) and normalizing to chromosomal gene GAPDH. (FIG. 5F) Representative OCR trace of let-7g OE cardiomyocytes for fatty acid stress measuring Etomixir (ETO) responsive OCR changes after palmitate addition. (FIG. 5G) Quantification of changes in OCR in response to ETO. n=32 from 3 biological replicates. […]

[1] = tested on: cardiomyocytes (let-7 OE CMs vs. EV control); assay: SEAHORSE XF96 metabolic flux assay (MITOSTRESS, palmitate, glucose stress); type: cell-based, human; settings: compared to EV control; for OCR changes after FCCP treatment (maximal respiration capacity): after oligomycin
Source text: To understand the molecular signaling components of maturation program that are modulated in let-7g OE CMs, the inventors probed the differential expression data further using density plots for each of the 12 pathways previously identified (FIG. 4F). […] The inverse relationship between FA metabolism and PI3/AKT/insulin signaling in let-7g OE CMs was similar to that observed in the 1 yr old CMs and consistent with the metabolic switch seen in maturing CMs in in vivo studies. The inventors validated by qPCR in the let-7 OE CMs the down-regulation of candidate let-7 targets in the insulin pathway and up-regulation of candidates of FA metabolism (FIG. 5B). To test the functional relevance for these gene expression changes, the inventors carried out metabolic analysis of let-7 OE CMs vs. EV control using the SEA HORSE™ metabolic flux assay. First, mitochondrial maximal respiration capacity was analyzed by measuring the oxygen consumption rate (OCR), a metabolic parameter representing the mitochondrial respiration levels. To record the maximum activity of the electron transport chain uncoupled from ATP synthesis, mitochondrial ATP synthase was inhibited with oligomycin, then maximum mitochondrial respiration was measured after addition of the proton gradient discharger, carbonyl cyanide 4-(trifluoromethoxy)phenylhydrazone (FCCP). […] Increased mitochondrial respiration can be due to increased mitochondrial copy number or increased mitochondrial activity, for example due to higher efficiency of glucose or fatty acid usage as energy substrates. […] To investigate whether the let-7 OE CMs also utilize glucose more efficiently, the extracellular acidification rate (ECAR) was determined. […] These experiments clearly indicate that let-7 OE specifically increases the efficiency of palmitate usage, which is an important sign of maturation.
The SEAHORSE™ XF96 extracellular flux analyzer was used to assess mitochondrial function. The plates were pre-treated with 0.1% Gelatin. At around 20 days after differentiation, the cardiomyocytes (both empty vector control and let-7 OE) were seeded onto the plates with a density of 30,000 cells per XF96 well (2,500/mm^2) to ensure about 90% surface coverage at the time of experiment. The SEAHORSE™ assays were carried out 3 days after the seeding onto the XF96 well plate. […] The OCR values were further normalized to the number of cells present in each well, quantified by the Hoechst staining (Hoechst 33342; SIGMA-ALDRICH™) as measured using fluorescence at 355 nm excitation and 460 nm emission. […] Cellular capacity to utilize Palmitate as an energy source was calculated as the OCR reduction after ETO addition. […]

IMR90 iPSC-CMs = assay: let-7 over-expression in IMR90 iPSC derived cardiomyocytes, qPCR; type: cell-based; settings: for let-7 over expression relative to empty vector (EV) control: pLKO-lentiviral OE for up to 2 weeks; for cardiomyocyte maturation markers expression / let-7 targets (lin28 and HMGA2) expression: qPCR
Source text: FIGS. 19A-19B show let-7 over-expression (OE) in IMR90 iPSC derived cardiomyocytes (IMR90 iPSC-CMs). A pLKO-lentiviral based system was used to overexpress let-7g and let-7i in IMR90-iPSC-CMs for up to 2 weeks. […] Experiments were validated with 3 biological and 3 technical replicates. FIG. 19B qPCR validated the down-regulation of let-7 targets (lin28 and HMGA2) and upregulation of cardiomyocyte maturation markers in let-7i OE and let-7g OE CMs.
Total RNAs were extracted with miRNeasy™ mini kit (QIAGEN™) or using TRIZOL™ (INVITROGEN™). RNA was DNAse treated with DNA-free kit (AMBION™). miR-let-7g and mir-let-7i taqman assays (APPLIED BIOSYSTEMS) were used for miRNAqPCRs following the manufacturer's protocol using RNU66 snoRNA as a loading control. For mRNA qPCR, reverse transcription reaction was carried out using Omniscript™ RT kit (QIAGEN™). Primers for CTNT, MYH7, RYR2, SERCA2 and GJA1 were based on Tulloch et a1^2. Primers for HCN4, KCNJ2, SCN5A, HMGA1, HMGA2, IRS2, INSR, LIN28, SLC27A6 and FABP2, CD36, PPARA, TRIM71, EGR1, CDKN1A were purchased from Real Time Primers. qPCR was performed using SYBR green chemistry and ABI 7300 Real time PCR system. Samples were normalized using GAPDH as a house keeping gene.

B1: let-7i: human let-7 family miRNA, SEQ ID NO: 10, overexpressed from pLKO lentiviral pri-miR-let-7i construct (nucleic acid, listed as Homo sapiens)
chain: CUGGCUGAGGUAGUAGUUUGUGCUGUUGGUCGGGUUGUGACAUUGCCCGCUGUGGAGAUAACUGCGCAAGCUACUGCCUUGCUA
**Q.** What does the source list for B1?
**A.** mitochondrial genome copy number (let-7 OE CMs): without affecting; OCR changes after FCCP treatment (maximal respiration capacity) [1]: significantly greater; OCR increase in response to palmitate (fatty acid stress test) [1]: greater; let-7 over expression relative to empty vector (EV) control (IMR90 iPSC-CMs): up to 8 fold; cardiomyocyte maturation markers expression (IMR90 iPSC-CMs): upregulation; let-7 targets (lin28 and HMGA2) expression (IMR90 iPSC-CMs): down-regulation

B2: let-7g: human let-7 family miRNA, SEQ ID NO: 9, overexpressed from pLKO lentiviral pri-miR-let-7g construct (nucleic acid, listed as Homo sapiens)
chain: AGGCUGAGGUAGUAGUUUGUACAGUUUGAGGGUCUAUGAUACCACCCGGUACAGGAGAUAACUGUACAGGCCACUGCCUUGCCA
**Q.** Which “mitochondrial genome copy number” value (let-7 OE CMs) does the source give for B2 here?
**A.** Its value is “without affecting”.

**Q.** What about the “OCR changes after FCCP treatment (maximal respiration capacity)” value [1] of the same molecule?
**A.** The value was “significantly greater”.

**Q.** And the “OCR increase in response to palmitate (fatty acid stress test)” value [1]?
**A.** Its value is “greater”.

**Q.** And the “let-7 over expression relative to empty vector (EV) control” value (IMR90 iPSC-CMs)?
**A.** The value was no more than 10 fold.

**Q.** And the “cardiomyocyte maturation markers expression” value (IMR90 iPSC-CMs)?
**A.** The value was “upregulation”.

**Q.** And the “let-7 targets (lin28 and HMGA2) expression” value (IMR90 iPSC-CMs)?
**A.** Its value is “down-regulation”.
